Data as given in article PMC6239862.

Molecular target: Q-PAS1 fragment of PpsR2 (Q-linker and PAS1 domain) fused with mRuby2 (Rhodopseudomonas palustris)
Test: cross-linking

- stoichiometry N: 2
Substance: Q-PAS1 fragment of PpsR2 (Q-linker and PAS1 domain) fused with mRuby2 (domain or fragment)
